Patent US10465009B2, “BCMA antigen binding proteins” (Amgen Inc., priority 2012, dated 2019)

What was measured:
BCMA = target: T1, BCMA (Homo sapiens, UniProt Q02223, N81S); experiment: FACS binding on cells transiently transfected to express full length BCMA; conditions: MFI vs negative control
T1 construct: cells transiently transfected to express full length BCMA, TACI, or BAFF-R; expressed in transfected cells
T1 sequence (Q02223 1-184 N81S): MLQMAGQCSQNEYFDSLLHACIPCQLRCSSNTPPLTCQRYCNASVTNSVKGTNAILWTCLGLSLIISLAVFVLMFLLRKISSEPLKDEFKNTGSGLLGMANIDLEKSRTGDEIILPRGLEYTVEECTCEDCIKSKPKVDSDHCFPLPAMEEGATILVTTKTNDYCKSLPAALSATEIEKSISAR
Method: An important criterion is exquisite selectivity for wild-type human BCMA expressed on the surface of cells. FACS binding on cells transiently transfected to express full length BCMA, TACI, or BAFF-R was performed using standard techniques. Approximately 40×10^6 of the transiently-transfected target cells were resuspended in a staining solution (2% goat serum, 1% rabbit serum, 0.02% azide in PBS) and aliquoted into round-bottom, 96-well plate (Corning Incorp., Acton, Mass.) as per the experiment design. The cells were incubated at 4 degrees celsius for 30 minutes to block non-specific sites. The antibodies were titrated into the staining solution. The cells were rinsed in a rinse solution (PBS+0.02% azide) by resuspending the cells in 200 ul/well. The cells were centrifuged at 1500 rpm at 4 degrees celsius for 7 minutes. The rinse solution was removed and the rinse step was repeated. The cells were resuspended in the appropriate antibody solution (see the matrix in TABLE 4) at 30 ul/well and incubated at 4 degrees celsius for 30 minutes. […] For the mouse IgG1 negative control and the two mouse antibodies (1.183 and 1.288), the secondary reagent was an anti-mouse IgG-PE conjugate (BD Pharmingen Cat. 550589). The cells/antibodies were rinsed as described above to remove excess/unbound antibody. […] Samples were read at 532 nm wavelength on FACS. […]

huBCMA on H929 cells = target: T2, huBCMA on H929 cells (Homo sapiens, UniProt Q02223, N81S); experiment: FACS binding to native BCMA on H929 myeloma cells; conditions: flow cytometry; muteins relative to parental 2A1
T2 construct: endogenous in cells; host or cells: H929 human multiple myeloma cell line
T2 sequence (Q02223 1-184 N81S): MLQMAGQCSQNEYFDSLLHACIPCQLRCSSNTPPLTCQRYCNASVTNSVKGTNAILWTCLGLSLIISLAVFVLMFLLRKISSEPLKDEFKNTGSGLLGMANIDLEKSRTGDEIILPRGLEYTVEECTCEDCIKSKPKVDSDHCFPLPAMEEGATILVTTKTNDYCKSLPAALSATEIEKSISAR
Method: Approximately 10 to 40×10^6 of H929 myeloma cells were resuspended in a staining solution (2% goat serum, 1% rabbit serum, 0.02% azide in PBS) and aliquoted into round-bottom, 96-well plate (Corning Incorp., Acton, Mass.) as per the experiment design. The cells were incubated at 4 degrees celsius for 30 minutes to block non-specific sites. The antibodies were titrated into the staining solution. The cells were rinsed in a rinse solution (PBS+0.02% azide) by resuspending the cells in 200 ul/well. The cells were centrifuged at 1500 rpm at 4 degrees celsius for 7 minutes. The rinse solution was removed and the rinse step was repeated. […] The huIgG1 negative control's secondary reagent was a biotinylated anti-huIgG (Jackson Labs, Bar Harbor, Me., Cat. 109-065-098), followed by a streptavidin-phycoerythrin (SA-PE) conjugate (BD Pharmingen, San Diego, Calif., Cat. 554061). […] The cells/antibodies were rinsed as described above to remove excess/unbound antibody. […] Samples were read at 532 nm wavelength on FACS.
To further characterize the engineered mutein antibodies, they were tested for the ability to bind BCMA by FACS analysis. […] The supernatants were removed and the cell pellets were resuspended in 0.2 mL/tube 4% paraformaldehyde in PBS and analyzed by flow cytometry

binding to BCMA on H929 cells (huBCMA on H929 cells): bound to human BCMA
B1: 1E1: fully human anti-huBCMA mAb, Vh SEQ ID NO:212, Vl SEQ ID NO:246 (antibody, V domains shown)
VH: QVQLVQSGAEVKKPGASVKVSCKASGYTFTGHYIHWVRQAPGQGLEWMGWIYPNSGGTNYAQKFQGRVTMTRDTSISTAYMELSRLRSDDSAVYYCAREGMVTGDYYYYRMDVWGQGTTVIVSS
VL: QPVLTQPPSASASLGASVTLTCSLSSGYSNYKVDWYQQRPGKGPRFVMRVGIGGIVGSKGDGIPDRFSVLGSGLNRYLTIKNIQEEDESDFHCGADHGSGNNFVYVFGTGTKVTVLG
BCMA (FACS binding) (BCMA): + (A sample was considered positive for binding if the MFI was two times the negative control value)
